{"source": "the RNAGym collection of RNA variant scans (doi:10.7554/elife.80360)", "parents": {"B1": {"name": "Hammerhead Ribozyme (parent)", "chain": "ACCGGAUGUGCUUUCCGGUCUGAUGAGUCCGUGAGGACGAAACAG"}}, "data": [{"variants_of": "B1", "experiment": "self-cleavage, relative activity (ratio to wild type); higher = more cleavage; co-transcriptional", "values": [{"variant": "U7C C15A", "self-cleavage": 0.737}, {"variant": "U7C C15G", "self-cleavage": 0.667}, {"variant": "U7C C15U", "self-cleavage": 0.995}, {"variant": "U7C G8U", "self-cleavage": 1.38}, {"variant": "U7C G8A", "self-cleavage": 0.95}, {"variant": "U7C G8C", "self-cleavage": 0.961}, {"variant": "U7C A41C", "self-cleavage": 0.34}, {"variant": "U7C A41G", "self-cleavage": 0.322}, {"variant": "U7C A41U", "self-cleavage": 0.336}, {"variant": "U7A G17U", "self-cleavage": 0.524}, {"variant": "U7A G17C", "self-cleavage": 0.481}, {"variant": "U7A G17A", "self-cleavage": 0.498}, {"variant": "U7A C29A", "self-cleavage": 0.511}, {"variant": "U7A C29G", "self-cleavage": 0.663}, {"variant": "U7A C29U", "self-cleavage": 0.823}, {"variant": "U7C A26C", "self-cleavage": 0.373}, {"variant": "U7C A26G", "self-cleavage": 0.305}, {"variant": "U7C A26U", "self-cleavage": 0.48}, {"variant": "U7A A34G", "self-cleavage": 1.07}, {"variant": "U7A A34U", "self-cleavage": 1.22}, {"variant": "U7A A34C", "self-cleavage": 1.78}, {"variant": "U7C C20U", "self-cleavage": 0.492}, {"variant": "U7C C20G", "self-cleavage": 0.306}, {"variant": "U7C C20A", "self-cleavage": 0.5}, {"variant": "U7A A37U", "self-cleavage": 0.497}, {"variant": "U7A A37C", "self-cleavage": 1.12}, {"variant": "U7A A37G", "self-cleavage": 0.907}, {"variant": "U7A C16A", "self-cleavage": 1.29}, {"variant": "U7A C16U", "self-cleavage": 1.17}, {"variant": "U7A C16G", "self-cleavage": 0.851}, {"variant": "U7A G36U", "self-cleavage": 0.585}, {"variant": "U7A G36C", "self-cleavage": 0.394}, {"variant": "U7A G36A", "self-cleavage": 0.681}, {"variant": "U7A C30A", "self-cleavage": 1.09}, {"variant": "U7A C30G", "self-cleavage": 1.05}, {"variant": "U7A C30U", "self-cleavage": 1.05}, {"variant": "U7A G45A", "self-cleavage": 0.427}, {"variant": "U7A G45U", "self-cleavage": 0.484}, {"variant": "U7A G45C", "self-cleavage": 0.566}, {"variant": "U7A G10C", "self-cleavage": 1.34}, {"variant": "U7A G10A", "self-cleavage": 1.33}, {"variant": "U7A G10U", "self-cleavage": 1.44}, {"variant": "U7A C43U", "self-cleavage": 0.302}, {"variant": "U7A C43G", "self-cleavage": 0.237}, {"variant": "U7A C43A", "self-cleavage": 0.317}, {"variant": "U7A G31U", "self-cleavage": 1.26}, {"variant": "U7A G31C", "self-cleavage": 1.28}, {"variant": "U7A G31A", "self-cleavage": 1.28}, {"variant": "U7A U24G", "self-cleavage": 0.882}, {"variant": "U7A U24A", "self-cleavage": 1.26}, {"variant": "U7A U24C", "self-cleavage": 0.976}, {"variant": "U7C A23G", "self-cleavage": 0.454}, {"variant": "U7C A23C", "self-cleavage": 0.356}, {"variant": "U7C A23U", "self-cleavage": 0.339}, {"variant": "U7A A41C", "self-cleavage": 0.407}, {"variant": "U7A A41U", "self-cleavage": 0.258}, {"variant": "U7A A41G", "self-cleavage": 0.368}, {"variant": "U7A G22A", "self-cleavage": 0.291}, {"variant": "U7A G22C", "self-cleavage": 0.309}, {"variant": "U7A G22U", "self-cleavage": 0.231}, {"variant": "U7A U9G", "self-cleavage": 1.32}, {"variant": "U7A U9C", "self-cleavage": 1.04}, {"variant": "U7A U9A", "self-cleavage": 0.874}, {"variant": "U7A C20G", "self-cleavage": 0.376}, {"variant": "U7A C20U", "self-cleavage": 0.345}, {"variant": "U7A C20A", "self-cleavage": 0.298}, {"variant": "U7A G33C", "self-cleavage": 1.44}, {"variant": "U7A G33A", "self-cleavage": 1.45}, {"variant": "U7A G33U", "self-cleavage": 1.14}, {"variant": "U7C G10A", "self-cleavage": 1.02}, {"variant": "U7C G10C", "self-cleavage": 0.781}, {"variant": "U7A A44U", "self-cleavage": 0.375}, {"variant": "U7A A44C", "self-cleavage": 0.397}, {"variant": "U7A A44G", "self-cleavage": 1.46}, {"variant": "U7C A34G", "self-cleavage": 0.863}, {"variant": "U7C A34C", "self-cleavage": 1.16}, {"variant": "U7C A34U", "self-cleavage": 0.995}, {"variant": "U7A U14G", "self-cleavage": 1.14}, {"variant": "U7A U14C", "self-cleavage": 1.17}, {"variant": "U7A U14A", "self-cleavage": 1.15}, {"variant": "U7A U13C", "self-cleavage": 1.43}, {"variant": "U7A U13G", "self-cleavage": 1.29}, {"variant": "U7A U13A", "self-cleavage": 1.42}]}]}
